According to patent US20200024330A1:

Tests used:
Test in all cases: cell-based or functional assay
[1] = target: HIV-1 92TH021 envelope protein (Env) on pseudotyped virus (HIV-1 isolate 92TH021)
[2] = target: HIV-1 93IN905 envelope glycoprotein (Env) (HIV-1)
[3] = target: HIV-1 93IN905 envelope protein (Env) on pseudotyped virus (HIV-1 isolate 93IN905)
[4] = target: HIV-1 APV-6 envelope glycoprotein (Env) on pseudovirus (HIV-1)
[5] = target: HIV-1 APV6 envelope glycoprotein (Env) (HIV-1)
[6] = target: HIV-1 Env of isolate 94KE105 (HIV-1)
[7] = target: HIV-1 Env of isolate MGRM-A-007 (HIV-1)
[8] = target: HIV-1 Env of isolate MGRM-A-009 (HIV-1)
[9] = target: HIV-1 Env of isolate MGRM-D-024 (HIV-1)
[10] = target: HIV-1 Env of isolate MGRM-D-026 (HIV-1)
[11] = target: HIV-1 Env of isolate MGRM-F1-004 (HIV-1)
[12] = target: HIV-1 Env of isolate MGRM-F1-006 (HIV-1)
[13] = target: HIV-1 Env of isolate VLGCA1 (HIV-1)
[14] = target: HIV-1 IAVI-C18 envelope glycoprotein (Env) on pseudovirus (HIV-1)
[15] = target: HIV-1 IAVI_C22 envelope protein (Env) on pseudotyped virus (HIV-1 isolate IAVI C22)
[16] = target: HIV-1 JR-CSF envelope protein (Env) on pseudotyped virus (HIV-1 isolate JR-CSF) (UniProt P20871)
[17] = target: HIV-1 MGRM-C-026 envelope glycoprotein (Env) (HIV-1)
[18] = target: HIV-1 MGRM-F1-013 Env (pseudovirus) (HIV-1)
[19] = target: HIV-1 NL43 envelope glycoprotein (Env) (HIV-1)
[20] = target: HIV-1 Env of isolate MGRM-A-002 (HIV-1)
[21] = target: HIV-1 Env of isolate MGRM-A-004 (HIV-1)

Row | Substance | IC50 neutralization [2] [µg/mL] | IC50 neutralization [5] [µg/mL] | IC50 (µg/mL), pseudovirus neutralization [6] [µg/mL] | IC50 [7] [µg/mL] | IC50 [8] [µg/mL] | IC50 (µg/mL), pseudovirus neutralization [9] [µg/mL] | IC50 (µg/mL), pseudovirus neutralization [10] [µg/mL] | IC50 (µg/mL), pseudovirus neutralization [11] [µg/mL] | IC50 (µg/mL), pseudovirus neutralization [12] [µg/mL] | IC50 (µg/mL), pseudovirus neutralization [13] [µg/mL] | IC50 neutralization [17] [µg/mL] | IC50 neutralization [19] [µg/mL] | IC50 (µg/mL), pseudovirus neutralization [20] [µg/mL] | IC50 (µg/mL), pseudovirus neutralization [21] [µg/mL] | IC50 (µg/mL), pseudovirus neutralization [7] [µg/mL] | IC50 (µg/mL), pseudovirus neutralization [8] [µg/mL] | other results
1 | 1496_C09 (PG9) (TCN-109) (antibody) | 0.048 | 0.214 | 37.9 | 1.06 | 0.023 | 0.038 | 23.7 | 0.175 | 7.25 | 0.069 | 0.113 | 0.687 |  |  |  |  | IC50, pseudovirus neutralization, 1 hour Virus/Ab Incubation [1]: 0.0612 µg/mL; IC50, pseudovirus neutralization, 18 hour Virus/Ab Incubation [1]: 0.0571 µg/mL; IC50, pseudovirus neutralization, 1 hour Virus/Ab Incubation [3]: 0.144 µg/mL; IC50, pseudovirus neutralization, 18 hour Virus/Ab Incubation [3]: 0.0619 µg/mL; IC90 (pseudovirus neutralization) [4]: 1.96 µg/mL; IC90 (pseudovirus neutralization) [14]: 0.866 µg/mL; IC50, pseudovirus neutralization, 1 hour Virus/Ab Incubation [15]: 24.9 µg/mL; IC50, pseudovirus neutralization, 18 hour Virus/Ab Incubation [15]: 2.11 µg/mL; IC50, pseudovirus neutralization, 1 hour Virus/Ab Incubation [16]: < 0.0025 µg/mL; IC50, pseudovirus neutralization, 18 hour Virus/Ab Incubation [16]: < 0.0025 µg/mL; IC50 (µg/ml), pseudovirus neutralization [18]: 0.56 µg/mL
2 | PGT-121 (antibody) | 0.0082 | 0.0423 | 0.029 |  |  |  |  |  |  | > 50 | 0.0034 | > 10 | 0.013 | > 50 | > 50 | 0.006 | 
3 | PGT-122 (antibody) | 0.0138 | 0.0851 | 0.056 |  |  |  |  |  |  | > 50 | 0.0089 | > 10 | 0.017 | > 50 | > 50 | 0.012 | 
4 | PGV04 (antibody) |  |  | 2.98 | 7.21 | 0.033 | > 50 | 1.76 | 0.58 | > 50 | 0.024 |  |  |  |  |  |  | IC50 [20]: 0.093 µg/mL; IC50 [21]: 0.175 µg/mL
